Experimental data published in the supplement of paper PMC10567573.

B1: MLL5 (parent)
chain: HDDGYMICCDKCSVWQHIDCMGID

Variants of: B1
Test: protein stability index of a GFP-peptide fusion (GPS, HEK-293T) (PSI 1-6); higher = more stable
Conditions: c terminus: a fixed tail appended
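Also: lentivirally expressed fusions sorted by FACS into six bins by GFP to DsRed ratio, PSI derived from sequencing read proportions per bin multiplied by bin number.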

Variant	protein stability index
HDDGYMICCDKCDVWQHIDCMGID	2.18
HDDGYMICCDKCMVWQHIDCMGID	2.45
HDDGYMICCDKCPVWQHIDCMGID	2.7
HDDGYMICCDKCTVWQHIDCMGID	2.72
HDDGYMICCDKCFVWQHIDCMGID	1.8
HDDGYMICCDKCRVWQHIDCMGID	3.31
HDDGYMICCDKCQVWQHIDCMGID	2.59
HDDGYMICCDKCGVWQHIDCMGID	3.48
HDDGYMICCDKCWVWQHIDCMGID	2.37
HDDGYMICCDKCHVWQHIDCMGID	2.09
HDDGYMICCDKCNVWQHIDCMGID	2.56
HDDGYMICCDKCEVWQHIDCMGID	2.55
HDDGYMICCDKCKVWQHIDCMGID	2.43
HDDGYMICCDKCYVWQHIDCMGID	1.93
HDDGYMICCDKCVVWQHIDCMGID	1.85
HDDGYMICCDKCCVWQHIDCMGID	3.19
HDDGYMICCDKCLVWQHIDCMGID	2.18
HDDGYMICCDKCAVWQHIDCMGID	1.73
HDDGYMICCDKHSVWQHIDCMGID	2.65
HDDGYMICCDKISVWQHIDCMGID	1.92
HDDGYMICCDKYSVWQHIDCMGID	2.91
HDDGYMICCDKSSVWQHIDCMGID	3.01
HDDGYMICCDKASVWQHIDCMGID	2.71
HDDGYMICCDKTSVWQHIDCMGID	2.74

Variant	protein stability index
HDDGYMICCDKWSVWQHIDCMGID	2.32
HDDGYMICCDKKSVWQHIDCMGID	3.46
HDDGYMICCDKGSVWQHIDCMGID	2.67
HDDGYMICCDKQSVWQHIDCMGID	2.46
HDDGYMICCDKESVWQHIDCMGID	3.63
HDDGYMICCDKRSVWQHIDCMGID	2.28
HDDGYMICCDKFSVWQHIDCMGID	1.76
HDDGYMICCDKMSVWQHIDCMGID	2.05
HDDGYMICCDKPSVWQHIDCMGID	2.56
HDDGYMICCDKVSVWQHIDCMGID	1.93
HDDGYMICCDKLSVWQHIDCMGID	1.7
HDDGYMICCDKNSVWQHIDCMGID	3.05
HDDGYMICCDKDSVWQHIDCMGID	3.54
HDDGYMICCDKCSVWQKIDCMGID	1.52
HDDGYMICCDKCSVWQNIDCMGID	2.32
HDDGYMICCDKCSVWQSIDCMGID	2.48
HDDGYMICCDKCSVWQAIDCMGID	2.16
HDDGYMICCDKCSVWQPIDCMGID	2.18
HDDGYMICCDKCSVWQVIDCMGID	2.8
HDDGYMICCDKCSVWQGIDCMGID	2.72
HDDGYMICCDKCSVWQIIDCMGID	1.34
HDDGYMICCDKCSVWQMIDCMGID	2.82
HDDGYMICCDKCSVWQDIDCMGID	2.5
HDDGYMICCDKCSVWQTIDCMGID	1.64

Variant	protein stability index
HDDGYMICCDKCSVWQQIDCMGID	2.48
HDDGYMICCDKCSVWQFIDCMGID	1.65
HDDGYMICCDKCSVWQLIDCMGID	1.98
HDDGYMICCDKCSVWQYIDCMGID	1.63
HDDGYMICCDKCSVWQRIDCMGID	1.95
HDDGYMICCDKCSVWQCIDCMGID	3.54
HDDGYMICCDKCSVWQEIDCMGID	2.89
HDDGYMICCDKCSVWGHIDCMGID	2.71
HDDGYMICCDKCSVWMHIDCMGID	2.65
HDDGYMICCDKCSVWDHIDCMGID	2.08
HDDGYMICCDKCSVWTHIDCMGID	1.69
HDDGYMICCDKCSVWVHIDCMGID	2.82
HDDGYMICCDKCSVWCHIDCMGID	2.4
HDDGYMICCDKCSVWPHIDCMGID	3.15
HDDGYMICCDKCSVWAHIDCMGID	1.47
HDDGYMICCDKCSVWIHIDCMGID	1.77
HDDGYMICCDKCSVWFHIDCMGID	2.02
HDDGYMICCDKCSVWLHIDCMGID	2.75
HDDGYMICCDKCSVWNHIDCMGID	2.42
HDDGYMICCDKCSVWWHIDCMGID	1.61
HDDGYMICCDKCSVWSHIDCMGID	1.93
HDDGYMICCDKCSVWRHIDCMGID	2.48
HDDGYMICCDKCSVWHHIDCMGID	2.48
HDDGYMICCDKCSVWKHIDCMGID	2.35

Variant	protein stability index
HDDGYMICCDKCSVWYHIDCMGID	1.07
HDDGYMICCDKCSVWEHIDCMGID	2.6
HDDGYMICCDKCSVWQHDDCMGID	3.71
HDDGYMICCDKCSVWQHGDCMGID	3.5
HDDGYMICCDKCSVWQHHDCMGID	3.6
HDDGYMICCDKCSVWQHKDCMGID	3.36
HDDGYMICCDKCSVWQHEDCMGID	3.5
HDDGYMICCDKCSVWQHLDCMGID	2.28
HDDGYMICCDKCSVWQHADCMGID	2.9
HDDGYMICCDKCSVWQHFDCMGID	2.35
HDDGYMICCDKCSVWQHRDCMGID	3.32
HDDGYMICCDKCSVWQHQDCMGID	3.42
HDDGYMICCDKCSVWQHVDCMGID	1.99
HDDGYMICCDKCSVWQHMDCMGID	3.14
HDDGYMICCDKCSVWQHPDCMGID	2.94
HDDGYMICCDKCSVWQHNDCMGID	2.52
HDDGYMICCDKCSVWQHSDCMGID	3.06
HDDGYMICCDKCSVWQHCDCMGID	3.93
HDDGYMICCDKCSVWQHTDCMGID	2.44
HDDGYMICTDKCSVWQHIDCMGID	3.75
HDDGYMICIDKCSVWQHIDCMGID	2.1
HDDGYMICVDKCSVWQHIDCMGID	2.67
HDDGYMICEDKCSVWQHIDCMGID	3.42
HDDGYMICKDKCSVWQHIDCMGID	2.85

Variant	protein stability index
HDDGYMICNDKCSVWQHIDCMGID	2.77
HDDGYMICRDKCSVWQHIDCMGID	2.76
HDDGYMICGDKCSVWQHIDCMGID	3.81
HDDGYMICLDKCSVWQHIDCMGID	2.12
HDDGYMICFDKCSVWQHIDCMGID	2.43
HDDGYMICSDKCSVWQHIDCMGID	3.81
HDDGYMICHDKCSVWQHIDCMGID	2.86
HDDGYMICQDKCSVWQHIDCMGID	3
HDDGYMICADKCSVWQHIDCMGID	2.56
HDDGYMICDDKCSVWQHIDCMGID	3.74
HDDGYMICYDKCSVWQHIDCMGID	1.47
HDDGYMICPDKCSVWQHIDCMGID	3.03
HDDGYMICWDKCSVWQHIDCMGID	2.16
HDDGYMICMDKCSVWQHIDCMGID	1.99
HDDGYMICCDKCSVKQHIDCMGID	3.61
HDDGYMICCDKCSVYQHIDCMGID	2.73
HDDGYMICCDKCSVAQHIDCMGID	3.38
HDDGYMICCDKCSVFQHIDCMGID	3.11
HDDGYMICCDKCSVTQHIDCMGID	3.7
HDDGYMICCDKCSVCQHIDCMGID	3.49
HDDGYMICCDKCSVNQHIDCMGID	3.79
HDDGYMICCDKCSVDQHIDCMGID	4.24
HDDGYMICCDKCSVQQHIDCMGID	3.63
HDDGYMICCDKCSVPQHIDCMGID	3.6

Variant	protein stability index
HDDGYMICCDKCSVMQHIDCMGID	3.18
HDDGYMICCDKCSVHQHIDCMGID	3.93
HDDGYMICCDKCSVRQHIDCMGID	3.18
HDDGYMICCDKCSVGQHIDCMGID	4.18
HDDGYMICCDKCSVVQHIDCMGID	3.59
HDDGYMICCDKCSVLQHIDCMGID	3.16
HDDGYMICCDKCSVEQHIDCMGID	4.13
HDDGYMICCDKCSVSQHIDCMGID	3.69
HDDGYMICCDKCSVIQHIDCMGID	2.43
HDDGYMIVCDKCSVWQHIDCMGID	1.64
HDDGYMITCDKCSVWQHIDCMGID	2.66
HDDGYMISCDKCSVWQHIDCMGID	1.83
HDDGYMIRCDKCSVWQHIDCMGID	2.51
HDDGYMIYCDKCSVWQHIDCMGID	2.12
HDDGYMIWCDKCSVWQHIDCMGID	1.86
HDDGYMICCDSCSVWQHIDCMGID	2.68
HDDGYMICCDVCSVWQHIDCMGID	1.5
HDDGYMICCDYCSVWQHIDCMGID	1.86
HDDGYMICCDECSVWQHIDCMGID	2.39
HDDGYMICCDPCSVWQHIDCMGID	2.4
HDDGYMICCDACSVWQHIDCMGID	1.82
HDDGYMICCDCCSVWQHIDCMGID	3.26
HDDGYMICCDTCSVWQHIDCMGID	1.81
HDDGYMICCDLCSVWQHIDCMGID	2.23

Variant	protein stability index
HDDGYMICCDFCSVWQHIDCMGID	1.05
HDDGYMICCDMCSVWQHIDCMGID	1.55
HDDGYMICCDNCSVWQHIDCMGID	2.31
HDDGYMICCDQCSVWQHIDCMGID	2.94
HDDGYMICCDGCSVWQHIDCMGID	3.03
HDDGYMICCDDCSVWQHIDCMGID	2.79
HDDGYMICCDRCSVWQHIDCMGID	1.85
HDDGYMICCDHCSVWQHIDCMGID	2.1
HDDGYMICCDICSVWQHIDCMGID	2
HDDGYMICCDKCSFWQHIDCMGID	1.86
HDDGYMICCDKCSMWQHIDCMGID	2.06
HDDGYMICCDKCSTWQHIDCMGID	2.93
HDDGYMICCDKCSQWQHIDCMGID	2.83
HDDGYMICCDKCSKWQHIDCMGID	3.22
HDDGYMICCDKCSAWQHIDCMGID	2.41
HDDGYMICCDKCSNWQHIDCMGID	3.05
HDDGYMICCDKCSDWQHIDCMGID	3.37
HDDGYMICCDKCSWWQHIDCMGID	2.11
HDDGYMICCDKCSSWQHIDCMGID	2.77
HDDGYMICCDKCSPWQHIDCMGID	3.12
HDDGYMICCDKCSLWQHIDCMGID	1.78
HDDGYMICCDKCSHWQHIDCMGID	3.23
HDDGYMICCDKCSEWQHIDCMGID	3.73
HDDGYMICCDKCSGWQHIDCMGID	2.94

Variant	protein stability index
HDDGYMICCDKCSCWQHIDCMGID	2.57
HDDGYMICCDKCSIWQHIDCMGID	2.57
HDDGYMICCDKCSRWQHIDCMGID	2.77
HDDGYMICCDKCSYWQHIDCMGID	2.12
HDDGYMICCGKCSVWQHIDCMGID	1.92
HDDGYMICCMKCSVWQHIDCMGID	2.95
HDDGYMICCQKCSVWQHIDCMGID	2.29
HDDGYMICCSKCSVWQHIDCMGID	2.72
HDDGYMICCFKCSVWQHIDCMGID	2.44
HDDGYMICCNKCSVWQHIDCMGID	2.41
HDDGYMICCEKCSVWQHIDCMGID	2.41
HDDGYMICCRKCSVWQHIDCMGID	2.4
HDDGYMICCCKCSVWQHIDCMGID	2.71
HDDGYMICCIKCSVWQHIDCMGID	3.54
HDDGYMICCVKCSVWQHIDCMGID	3.07
HDDGYMICCKKCSVWQHIDCMGID	2.51
HDDGYMICCYKCSVWQHIDCMGID	2.88
HDDGYMICCAKCSVWQHIDCMGID	1.71
HDDGYMICCTKCSVWQHIDCMGID	1.69
HDDGYMICCPKCSVWQHIDCMGID	2.36
